According to patent US20240181022A1, “AMURINS LYSINS, AND LYSIN-ANTIMICROBIAL PEPTIDE (AMP) CONSTRUCTS ACTIVE AGAINST GRAM-NEGATIVE BACTERIA” (priority 2021, published 2024):
Where no end group is shown, it is not given here.

Columns and labels:
B. cenocepacia = assay: Checkerboard synergy assay with meropenem against B. cenocepacia; assay type: cell-based, Burkholderia cenocepacia; conditions: for MIC (dual agent): GN370 + meropenem; for FICmin / FICmin interpretation: GN370 with meropenem
Text: (§1) In some embodiments, the Chp peptides disclosed herein or active fragments thereof reduce the minimum inhibitory concentration (MIC) of an antibiotic in the presence and/or absence of human serum, pulmonary surfactant, and/or sputum, including human sputum and human sputum from a cystic fibrosis patient. Any known method to assess MIC may be used. In some embodiments, a checkerboard assay is used to determine the effect of a Chp peptide or active fragment thereof on antibiotic concentration. The checkerboard assay is based on a modification of the CLSI method for MIC determination by broth microdilution (See Clinical and Laboratory Standards Institute (CLSI), CLSI. 2015. Methods for Dilution Antimicrobial Susceptibility Tests for Bacteria That Grow Aerobically; Approved Standard-10th Edition. Clinical and Laboratory Standards Institute, Wayne, PA, which is herein incorporated by reference in its entirety and Ceri et al. 1999. J. Clin. Microbiol. 37: 1771-1776, which is also herein incorporated by reference in its entirety).
(§2) Checkerboards are constructed by first preparing columns of e.g., a 96-well polypropylene microtiter plate, wherein each well has the same amount of antibiotic diluted 2-fold along the horizontal axis. […] The Chp peptide or active fragment thereof and antibiotic dilutions are then combined, so that each column has a constant amount of antibiotic and doubling dilutions of Chp peptide, while each row has a constant amount of Chp peptide and doubling dilutions of antibiotic. Each well thus has a unique combination of Chp peptide and antibiotic. Bacteria are added to the drug combinations at concentrations of 1×10^5 GFU/ml in CAA, for example, with or without human serum or pulmonary surfactant. […] Summation fractional inhibitory concentrations (ΣFICs) are calculated for each drug and the minimum ΣFIC value (ΣFICmin) is used to determine the effect of the Chp peptide/antibiotic combination.
The synergy of GN370 with meropenem was evaluated against 3 different strains of P. aeruginosa and three different strains of B. cenocepacia.

E. coli = assay: Checkerboard synergy assay (FICI) against E. coli; assay type: cell-based, Escherichia coli; conditions: E. coli ATCC 25922
Text: as §1, §2
(§3) GN370 was further tested in combination with up to seven additional antibiotics (in addition to meropenem) against a variety of bacterial strains, including P. aeruginosa, A. baumannii, E. coli, E. cloacae, and K. pneumoniae. GN370 and the subject antibiotics were tested in a checkerboard assay format, and FICI values were determined, wherein ≤0.5 indicates synergy, >0.5-≤1 indicates additive; and >1 indicates indifferent.

A. baumannii [1] = assay: Checkerboard synergy assay (FICI) against A. baumannii; assay type: cell-based, Acinetobacter baumannii; conditions: A. baumannii ATCC BAA-747
Experimental: Any known method to assess MIC may be used.
Checkerboards are constructed by first preparing columns of e.g., a 96-well polypropylene microtiter plate, wherein each well has the same amount of antibiotic diluted 2-fold along the horizontal axis. […] Bacteria are added to the drug combinations at concentrations of 1×10^5 […] in CAA, for example, with or without human serum or pulmonary surfactant. […] Summation fractional inhibitory concentrations (ΣFICs) are calculated for each drug and the minimum ΣFIC value (ΣFICmin) is used to determine the effect of the Chp peptide/antibiotic combination.
as §3

P. aeruginosa AR-769 = assay: Repeat dose study of AM1 in the rabbit pulmonary infection model; assay type: in vivo; conditions: for Log CFU change v. pre-treatment (at 6 hours) / Mean Bacterial Density in Lung ± SD / Survival: rabbit
A. baumannii [2] = assay: GN370 time-kill assay, A. baumannii; assay type: cell-based, Acinetobacter baumannii; conditions: for Log10 CFU/mL: A. baumannii ATCC BAA 747
Experimental: A kinetic analysis of GN370 bactericidal activity was performed using a time-kill assay format in which CFU reductions of each target organism (P. aeruginosa, K. pneumoniae, A. baumannii, E. coli, and E. cloacae) were measured over 24 hours at 37° C. […] Bactericidal activity was defined as CFU reductions of ≥3-log 10 CFU/mL as compared to the inoculum at the 24-hour time point.

[3] = tested on: Ralstonia mannitolilytica; assay: MIC by broth microdilution against Ralstonia mannitolilytica; assay type: cell-based; conditions: N 10
Experimental: (§4) MIC values were determined by broth microdilution against clinical isolates and resistant isolates from a wide range of bacterial species, including isolates from the CDC Antibiotic Resistance bank, including the GN ESKAPE pathogens and E. coli, including carbapenem-resistant Enterobacteriaciae, Acinetobacter, and Pseudomonas.

A. baumannii [4] = assay: MBEC against A. baumannii biofilm; assay type: cell-based, Acinetobacter baumannii; conditions: MDR and XDR A. baumannii (22)
Klebsiella oxytoca = assay: MIC by broth microdilution against Klebsiella oxytoca; assay type: cell-based; conditions: N 1
Experimental: as §4

K. pneumoniae = assay: MIC by broth microdilution against K. pneumoniae; assay type: cell-based, Klebsiella pneumoniae
E. cloacae (ATCC 13047) = assay: microbe, parasite or virus in culture; assay type: cell-based, Enterobacter cloacae
Burkholderia cepacia = assay: MIC by broth microdilution against Burkholderia cepacia; assay type: cell-based; conditions: N 9
Experimental: as §4

[5] = AM1 1 mg/kg i.v. every 24 hours (n = 7)
[6] = AM1 5 mg/kg i.v. every 24 hours (n = 8)
[7] = Klebsiella pneumoniae, AR Bank, N 32
[8] = Klebsiella pneumoniae, Weill Cornell, N 9
[9] = Klebsiella pneumoniae, all isolates, N 41

C[C@@H](O)[C@H]1C(=O)N2C(C(=O)O)=C(S[C@@H]3CN[C@H](C(=O)N(C)C)C3)[C@H](C)[C@H]12 [meropenem, reference compound]
MIC (alone) (B. cenocepacia; B. cenocepacia (CFS 2135)): 32 µg/mL | MIC (dual agent) (B. cenocepacia; B. cenocepacia (CFS 2135)): 32 µg/mL | MIC (alone) (B. cenocepacia; B. cenocepacia (CFS 2138)): 64 µg/mL | MIC (dual agent) (B. cenocepacia; B. cenocepacia (CFS 2138)): 64 µg/mL | MIC (alone) (B. cenocepacia; B. cenocepacia (CFS 2142)): 64 µg/mL | MIC (dual agent) (B. cenocepacia; B. cenocepacia (CFS 2142)): 32 µg/mL | FICI of the antibiotic with GN370 (E. coli): 0.5 | FICI of the antibiotic with GN370 (A. baumannii [1]): 0.5

MRLKMARRRYRLPRRRSRRLFSRTALRMHPRNRLRRIMRGGIRF [AM1]
mean bacterial density in lungs compared to the vehicle control group (P. aeruginosa AR-769; agent alone, intravenous, treatment from 6 hours post-infection): moderate to no CFU/g reduction | Log CFU change v. pre-treatment (at 6 hours) (P. aeruginosa AR-769; [5]): 1.56 Log CFU | Mean Bacterial Density in Lung ± SD (P. aeruginosa AR-769; [5]): 9.02 ± 1.49 Log CFU/lung | Survival (P. aeruginosa AR-769; [5]): 0% | Log CFU change v. pre-treatment (at 6 hours) (P. aeruginosa AR-769; [6]): 1.80 Log CFU | Mean Bacterial Density in Lung ± SD (P. aeruginosa AR-769; [6]): 8.98 ± 1.47 Log CFU/lung | Survival (P. aeruginosa AR-769; [6]): 37.5%

B1: GN370: lysin-AMP construct, SEQ ID NO: 149: MIDR, FIRL and NPTH moieties N-terminal to GN202 lysin (protein)
chain: MIDRFIRLNPTHGPRRPRRPGRRAPVRTSQRGIDLIKSFEGLRLSAYQDSVGVWTIGYGTTRGVTRYMTITVEQAERMLSNDIQRFEPELDRLAKVPLNQNQWDALMSFVYNLGAANLASSTLLDLLNKGDYQGAADQFPHWVNAGGKRLDGLVKRRAAERALFLEPLS
modifications: GN370 lysin
Log10 CFU/mL (A. baumannii [2]; 0.2x MIC, 1 hr): 3.8 Log10 CFU/mL | Log10 CFU/mL (A. baumannii [2]; 0.2x MIC, 3 hr): 4.0 Log10 CFU/mL | Log10 CFU/mL (A. baumannii [2]; 0.2x MIC, 24 hr): 5.8 Log10 CFU/mL | Log10 CFU/mL (A. baumannii [2]; 1x MIC, 1 hr): 1.5 Log10 CFU/mL | Log10 CFU/mL (A. baumannii [2]; 1x MIC, 3 hr): 1.5 Log10 CFU/mL | Log10 CFU/mL (A. baumannii [2]; 1x MIC, 24 hr): 1.5 Log10 CFU/mL | Log10 CFU/mL (A. baumannii [2]; 2x MIC, 1 hr): 1.5 Log10 CFU/mL | Log10 CFU/mL (A. baumannii [2]; 2x MIC, 3 hr): 1.5 Log10 CFU/mL | Log10 CFU/mL (A. baumannii [2]; 2x MIC, 24 hr): 1.5 Log10 CFU/mL | Log10 CFU/mL (A. baumannii [2]; 5x MIC, 1 hr): 1.5 Log10 CFU/mL | Log10 CFU/mL (A. baumannii [2]; 5x MIC, 3 hr): 1.5 Log10 CFU/mL | Log10 CFU/mL (A. baumannii [2]; 5x MIC, 24 hr): 1.5 Log10 CFU/mL | concentration with bactericidal activity (≥3-log 10 CFU/mL reduction at 24 hours) (A. baumannii [2]; A. baumannii, 37° C.): ≥ 1 ×MIC | MIC (alone) (B. cenocepacia; B. cenocepacia (CFS 2135)): 128 µg/mL | MIC (dual agent) (B. cenocepacia; B. cenocepacia (CFS 2135)): 64 µg/mL | FICmin (B. cenocepacia; B. cenocepacia (CFS 2135)): 1.5 | FICmin interpretation (B. cenocepacia; B. cenocepacia (CFS 2135)): (Indifferent) | MIC (alone) (B. cenocepacia; B. cenocepacia (CFS 2138)): 256 µg/mL | MIC (dual agent) (B. cenocepacia; B. cenocepacia (CFS 2138)): 128 µg/mL | FICmin (B. cenocepacia; B. cenocepacia (CFS 2138)): 1.5 | FICmin interpretation (B. cenocepacia; B. cenocepacia (CFS 2138)): (Indifferent) | MIC (alone) (B. cenocepacia; B. cenocepacia (CFS 2142)): 256 µg/mL | MIC (dual agent) (B. cenocepacia; B. cenocepacia (CFS 2142)): 128 µg/mL | FICmin (B. cenocepacia; B. cenocepacia (CFS 2142)): 1 | FICmin interpretation (B. cenocepacia; B. cenocepacia (CFS 2142)): (Additive) | synergy with meropenem (B. cenocepacia; three strains of B. cenocepacia): not against B. cenocepacia | MIC50 [3]: >64 µg/mL | MIC90 [3]: >64 µg/mL | MIC Range [3]: >64 µg/mL | MBEC50 (A. baumannii [4]): 1 µg/mL | MBEC90 (A. baumannii [4]): 2 µg/mL | MBEC Range (A. baumannii [4]): 0.5 to 2 µg/mL | Number of isolates at MBEC 0.5 μg/mL (A. baumannii [4]): 2 | Number of isolates at MBEC 1 μg/mL (A. baumannii [4]): 12 | Number of isolates at MBEC 2 μg/mL (A. baumannii [4]): 8 | MIC Range (Klebsiella oxytoca): 4 µg/mL | MIC (K. pneumoniae; K. pneumoniae ATCC 700603): (MIC = 4 μg/mL) | MIC (K. pneumoniae; K. pneumoniae HM-44 (head of Table 19)): 4 µg/mL | MIC90 (K. pneumoniae; K. pneumoniae clinical and resistant isolates): 4 µg/mL | MIC50 (K. pneumoniae; [7]): 1 µg/mL | MIC90 (K. pneumoniae; [7]): 4 µg/mL | MIC Range (K. pneumoniae; [7]): 0.125 to 4 µg/mL | MIC50 (K. pneumoniae; [8]): 2 µg/mL | MIC90 (K. pneumoniae; [8]): 4 µg/mL | MIC Range (K. pneumoniae; [8]): 0.25 to 4 µg/mL | MIC50 (K. pneumoniae; [9]): 2 µg/mL | MIC90 (K. pneumoniae; [9]): 4 µg/mL | MIC Range (K. pneumoniae; [9]): 0.125 to 4 µg/mL | change in MIC over 28-day serial passage (E. cloacae (ATCC 13047); E. cloacae (ATCC 13047)): ≤ 2 fold | MIC (E. cloacae (ATCC 13047); E. cloacae ATCC 13047, target organism of serial passage study): 1 µg/mL | MIC50 (Burkholderia cepacia): >64 µg/mL | MIC90 (Burkholderia cepacia): >64 µg/mL | MIC Range (Burkholderia cepacia): >64 µg/mL
